Experimental data as given in US8691225B2, “Antibodies against the ectodomain of ErbB3 and uses thereof” (Merrimack Pharmaceuticals, Inc., priority 2007, dated 2014).
Where two headings read alike, the source gives them in different places.

What was measured:
[1] = target: T1, heregulin binding to ErbB3 on MALME-3M cells (Homo sapiens, UniProt P21860); assay: biotinylated heregulin binding to MALME3M cells by FACS; assay type: cell-based; settings: 5 μM antibody, 20 nM heregulin EGF
T1 construct: ErbB3 expressed on MALME-3M melanoma cells; host or cells: MALME-3M melanoma cells
Method: After 30 minutes, 50 μl of 40 nM biotinylated heregulin EGF is added to the cells and incubated for another 10 minutes on ice. This yields a final concentration of 5 μM antibody and 20 nM heregulin EGF. Cells are then washed twice with 500 μl BD stain buffer and incubated with 100 μl of a 1:200 dilution of streptavidin-PE (PE=phycoerythrin) (Invitrogen) in BD stain buffer for 45 minutes. Finally, cells are washed twice, resuspended in 300 μl of BD stain buffer and analyzed in a FACSCALIBUR flow cytometer. As a positive control, 1×10^5 MALME3M cells are incubated with 20 nM heregulin EGF for 10 minutes on ice, washed twice and incubated with a 1:200 dilution of streptavidin-PE for 45 minutes. In order to assess background staining from the streptavidin-PE conjugate, 1×10^5 MALME3M cells are incubated with 100 μl of a 1:200 dilution of streptavidin-PE only for 45 minutes.

[2] = target: T2, ErbB2/3 complex in AdrR cells (Homo sapiens, UniProt P21860); assay: ErbB2-ErbB3 protein complex formation (immunoprecipitation, blot); assay type: cell-based; settings: 250 nM Ab #6, 10 nM HRG
T2 construct: host or cells: AdrR ovarian cancer cells
Method: The cells are lysed in 25 mM Tris, pH+7.5, 150 mM NaCl, 1 mM EDTA, 1.0% Triton X-100, 1.0% CHAPS, 10% v/v glycerol, containing 0.2 mM PMSF, 50 mTU/mL aprotinin, and 100 uM leupeptin, and the crude lysate are centrifuged briefly to remove insoluble material. Supernatant is transferred to a new EPPENDORF tube, and anti-ErbB3 antibody (Santa Cruz sc-285) is added at 1:500 dilution. Supernatants are incubated overnight with gentle shaking at 4 C. 60 ul of Immobilized Protein A/G agarose beads (Pierce, Rockford, Ill., #20421) is first washed with 1× PBS. The cell lysate-antibody mixture is added to the PBS washed beads, and incubated for 2 hours with gentle shaking at 4° C. The immunoprecipitates are then washed with ice-cold lysis buffer 3 times, resuspended in 30 ul of 2× SDS sample buffer, heat denatured at 95° C. for 7 minutes and run on 4-12% Bis-Tris Gels. SDS-PAGE and electro-transferred to PVDF membrane in Tri-Glycine buffer with 10% MeOH. […] The signal is detected using goat anti-rabbit IRDye800® infrared fluorescent dye-conjugated secondary antibody at 1:5000 (2 ul) in 10 ml of blocking buffer (Li-Cor Biosciences, #927-40000).

[3] = target: ErbB3 (Homo sapiens, UniProt P21860); assay: Kinetic Exclusion Assay (KinExA); assay type: binding
[4] = system: heregulin-mediated phosphorylation of ErbB3 and AKT in OVCAR8 cells; assay: heregulin-mediated signaling ELISA (pErbB3, pAKT); assay type: cell-based, human; settings: for IC50: IgG2 isotype, 5 nM HRG
Method: MALME-3M cells and OVCAR8 cells are separately seeded in 96 well tissue culture plates (35,000 cells per well) and grown in RPMI-1640 media supplemented with antibiotics, 2 mM L-glutamine and 10% FBS for 24 hours at 37° C. and 5% carbon dioxide. Cells are serum-starved in RPMI-1640 media with antibiotics and 2 mM L-glutamine for 24 hours at 37° C. and 5% carbon dioxide. […] Controls are HRG without added antibody and untreated cells (no HRG and no Ab). Cells are washed with cold PBS then harvested with mammalian protein extract (M-PER) lysis buffer (Pierce, 78505) containing 150 mM NaCl, 5 mM sodium pyrophosphate (Sigma, 221368-100G), 10 uM bpV(phen) (Calbiochem, 203695), 50 μM oxophenylarsine (Calbiochem, 521000), 1 mM sodium orthovanadate (Sigma, 56508-10G), and protease inhibitor cocktail (Sigma, P2714). Cell lysates are diluted two-fold with 4% bovine serum albumin in PBST (0.2% tween-20), then analyzed by ELISA for phosphorylation of either ErbB3, or AKT (a downstream effector of ErbB3).
In order to test for AKT phosphorylation, lysates are run on an ELISA plate with a capture antibody specific to AKT and biotinylated detection antibody specific to phospho-serine 473 of phospho-AKT (pAKT). Signal is generated with streptavidin conjugated to horseradish-peroxidase reacted with SUPERSIGNAL ELISA Pico chemiluminescent substrate (Pierce, 37070). In order to assay for ErbB3 phosphorylation, lysates are run on an ELISA plate with a capture antibody specific for ErbB3 and an anti-phosphotyrosine detection antibody conjugated to horseradish-peroxidase. This is then reacted with the same chemiluminescent substrate. Luminescent signal on the ELISAs is measured using a luminometer.

[5] = system: Du145 (prostate) xenograft; assay: xenograft tumor growth in nude mice; assay type: in vivo, mouse

B1: Ab #6: human anti-ErbB3 antibody from Fab-phage library, CDRs SEQ ID NOs:7-12; used as IgG1 and IgG2 isotypes; in phase I trials as MM-121 (antibody, V domains shown)
VH: EVQLLESGGGLVQPGGSLRLSCAASGFTFSHYVMAWVRQAPGKGLEWVSSISSSGGWTLYADSVKGRFTISRDNSKNTLYLQMNSLRAEDTAVYYCTRGLKMATIFDYWGQGTLVTVSS
VL: QSALTQPASVSGSPGQSITISCTGTSSDVGSYNVVSWYQQHPGKAPKLIIYEVSQRPSGVSNRFSGSKSGNTASLTISGLQTEDEADYYCCSYAGSSIFVIFGGGTKVTVL
- inhibition of heregulin binding to ErbB3 [1]: able to inhibit heregulin binding to ErbB3
- inhibition of HRG stimulated ErbB2/3 complex formation [2]: completely inhibit HRG stimulated ErbB2/3 complex formation
- dissociation rate [3]: 0.00011 s⁻¹
- inhibition of heregulin-mediated signaling [4]: potent inhibitor of heregulin-mediated signaling
- IC50 ([4]; read-out: IC50, heregulin-mediated phosphorylation of ErbB3): 24 nM
- IC50 ([4]; read-out: IC50, phosphorylation of AKT): 67 nM
- inhibition of tumor growth ([5]; 300 ug every three days (Q3d), p<0.05): significant inhibition of tumor growth
- inhibition of tumor growth ([5]; 600 ug Q3d versus 300 ug): further elevated
